Article PMC8599947

Assays:
[1] = biological target: T1, CST g3.1 (human, UniProt Q2NKJ3;Q9H668;Q86WV5 1-1217;1-368;1-123, K1167E;CTC1:K1164E); test: EMSA
[2] = biological target: T2, CST g2.1 (human, UniProt Q2NKJ3;Q9H668;Q86WV5 1-1217;1-368;1-123, N981D;Y983A;CTC1:R978E); test: EMSA
[3] = biological target: T3, CST g1.1 (human, UniProt Q2NKJ3;Q9H668;Q86WV5 1-1217;1-368;1-123, E951K;CTC1:Y949A); test: EMSA
[4] = biological target: CST g4.1 (negative control mutant) (human, UniProt Q2NKJ3;Q9H668;Q86WV5 1-1217;1-368;1-123, R744E;CTC1:K743E); test: fluorescence anisotropy
Sequence of CST g4.1 (negative control mutant) (Q2NKJ3 whole entry R744E, chain 1 of 3): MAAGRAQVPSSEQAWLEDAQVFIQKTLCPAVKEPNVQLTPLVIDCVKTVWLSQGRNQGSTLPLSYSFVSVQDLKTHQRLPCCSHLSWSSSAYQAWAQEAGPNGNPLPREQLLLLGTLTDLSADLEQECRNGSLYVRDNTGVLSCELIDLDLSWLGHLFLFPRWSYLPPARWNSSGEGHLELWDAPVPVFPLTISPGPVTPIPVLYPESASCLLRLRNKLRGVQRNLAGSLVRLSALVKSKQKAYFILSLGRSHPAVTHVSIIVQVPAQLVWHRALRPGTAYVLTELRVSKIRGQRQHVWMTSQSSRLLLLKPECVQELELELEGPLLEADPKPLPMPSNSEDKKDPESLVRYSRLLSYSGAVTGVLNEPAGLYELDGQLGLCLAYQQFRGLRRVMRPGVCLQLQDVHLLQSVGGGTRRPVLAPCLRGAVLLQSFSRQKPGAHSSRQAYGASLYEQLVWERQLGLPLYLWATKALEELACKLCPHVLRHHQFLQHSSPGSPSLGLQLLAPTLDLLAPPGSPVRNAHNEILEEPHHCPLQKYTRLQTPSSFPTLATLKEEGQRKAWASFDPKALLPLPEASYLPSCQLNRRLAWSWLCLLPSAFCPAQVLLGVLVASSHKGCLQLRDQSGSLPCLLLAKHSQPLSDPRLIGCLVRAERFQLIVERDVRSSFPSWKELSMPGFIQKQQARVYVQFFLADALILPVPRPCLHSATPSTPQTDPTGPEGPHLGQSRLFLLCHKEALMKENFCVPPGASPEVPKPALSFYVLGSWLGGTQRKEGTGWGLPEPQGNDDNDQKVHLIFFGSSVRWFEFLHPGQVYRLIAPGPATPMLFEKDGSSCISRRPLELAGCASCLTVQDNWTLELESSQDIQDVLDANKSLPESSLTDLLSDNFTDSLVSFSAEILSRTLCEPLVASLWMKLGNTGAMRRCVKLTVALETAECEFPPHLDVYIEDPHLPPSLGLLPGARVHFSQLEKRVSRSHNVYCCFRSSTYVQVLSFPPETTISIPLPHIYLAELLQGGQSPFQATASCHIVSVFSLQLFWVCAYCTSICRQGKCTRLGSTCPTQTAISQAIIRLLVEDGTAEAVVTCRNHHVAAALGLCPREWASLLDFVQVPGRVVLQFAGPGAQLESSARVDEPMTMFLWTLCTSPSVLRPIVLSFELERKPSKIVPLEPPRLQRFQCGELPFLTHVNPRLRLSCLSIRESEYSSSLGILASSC
Sequence of CST g4.1 (negative control mutant) (Q9H668 whole entry, stated change not applied, chain 2 of 3): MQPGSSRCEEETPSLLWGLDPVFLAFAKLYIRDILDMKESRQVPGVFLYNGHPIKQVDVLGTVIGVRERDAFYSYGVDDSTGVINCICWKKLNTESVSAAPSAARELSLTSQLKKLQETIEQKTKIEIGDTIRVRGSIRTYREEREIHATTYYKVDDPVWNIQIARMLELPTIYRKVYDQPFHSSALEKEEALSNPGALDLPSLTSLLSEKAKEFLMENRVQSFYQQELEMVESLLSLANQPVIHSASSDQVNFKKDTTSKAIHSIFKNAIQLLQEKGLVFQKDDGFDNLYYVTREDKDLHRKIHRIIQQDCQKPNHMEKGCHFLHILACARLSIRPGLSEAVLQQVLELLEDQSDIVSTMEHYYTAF
Sequence of CST g4.1 (negative control mutant) (Q86WV5 whole entry, stated change not applied, chain 3 of 3): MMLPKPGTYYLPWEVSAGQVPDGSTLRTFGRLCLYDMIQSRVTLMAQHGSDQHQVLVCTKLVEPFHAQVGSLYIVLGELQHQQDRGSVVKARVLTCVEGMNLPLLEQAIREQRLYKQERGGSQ

[5] = biological target: T3, CST g1.1; test: fluorescence anisotropy
[6] = biological target: T1, CST g3.1; test: fluorescence anisotropy
[7] = biological target: T2, CST g2.1; test: fluorescence anisotropy

T3 sequence (Q2NKJ3 whole entry E951K, chain 1 of 3): as the sequence (Q2NKJ3 whole entry R744E, chain 1 of 3) above, with E744R, E951K counted along it
T3 sequence (Q9H668 whole entry, stated change not applied, chain 2 of 3): as the sequence (Q9H668 whole entry, stated change not applied, chain 2 of 3) above
T3 sequence (Q86WV5 whole entry, stated change not applied, chain 3 of 3): as the sequence (Q86WV5 whole entry, stated change not applied, chain 3 of 3) above
T2 sequence (Q2NKJ3 whole entry N981D/Y983A, chain 1 of 3): as the sequence (Q2NKJ3 whole entry R744E, chain 1 of 3) above, with E744R, N981D, Y983A counted along it
T2 sequence (Q9H668 whole entry, stated change not applied, chain 2 of 3): as the sequence (Q9H668 whole entry, stated change not applied, chain 2 of 3) above
T2 sequence (Q86WV5 whole entry, stated change not applied, chain 3 of 3): as the sequence (Q86WV5 whole entry, stated change not applied, chain 3 of 3) above
T1 sequence (Q2NKJ3 whole entry K1167E, chain 1 of 3): as the sequence (Q2NKJ3 whole entry R744E, chain 1 of 3) above, with E744R, K1167E counted along it
T1 sequence (Q9H668 whole entry, stated change not applied, chain 2 of 3): as the sequence (Q9H668 whole entry, stated change not applied, chain 2 of 3) above
T1 sequence (Q86WV5 whole entry, stated change not applied, chain 3 of 3): as the sequence (Q86WV5 whole entry, stated change not applied, chain 3 of 3) above

| Binder | Kd [1] [nM] | Kd [2] [nM] | Kd [3] [nM] | Kd [4] [nM] | Kd [5] [nM] | Kd [6] [nM] | Kd [7] [nM] |
| --- | --- | --- | --- | --- | --- | --- | --- |
| TTAGGGTTAGGGTTAGGG (ssDNA) [3xTEL (EMSA)] | 97 ± 27 | 210 ± 106 | 133 ± 73 | – | – | – | – |
| TTAGGGTTAGGGTTAGGG (ssDNA) [3xTEL (FP)] | – | – | – | 2 ± 0.16 | ~520 | ~420 | ~800 |
